US20220177457A1, “SMALL MOLECULES THAT BIND CYCLIN-DEPENDENT KINASE INHIBITOR 1B (P27KIP1)” (St. Jude Children's Hospital, Inc., priority 2019, published 2022)

Columns and labels:
p27-KID = p27-KID (Homo sapiens, UniProt P46527); assay: 2D 1H-15N HSQC NMR screening and titration of compounds into 15N-p27-KID; settings: read-out: Kd (from CSP); single-site binding model fitted to chemical shift perturbation; 298 K, pH 6.5
Method: Two-dimensional (2D)^1H-^15N HSQC NMR experiments were performed using a SampleJet sample changer. […] Chemical shift perturbation values were quantified using the equation Δδ=√{square root over (ΔδH^2+(0.2ΔδN)^2)}. The statistical significance was based on a threshold defined as the average CSP value plus two times the standard deviation of the mean (Δδave+2σ).

Cdk2/cyclin A [1] = target: T1, Cdk2/cyclin A (Homo sapiens, UniProt P24941); assay: Isothermal titration calorimetry of p27 variants into Cdk2/cyclin A; settings: ITC at 25° C., binding to Cdk2/cyclin A
T1 construct: Full length human Cdk2; made in house
Method: (§1) ITC experiments were performed using a MicroCal ITC200 calorimeter with p27 variants in the syringe and Cdk2/cyclin A and Cdk2, respectively, in the cell. Prior to each set of experiments, protein samples were extensively dialyzed together against ITC buffer containing 20 mM HEPES, pH 7.5, 300 mM NaCl, 5 mM TCEP. A standard titration consisted of 19 injections of 2-μl of p27 variant (100 μM) into a solution of Cdk2/cyclin A (10 μM) or Cdk2 (10 μM), respectively. The time interval between injections was 180 s. Experiments were performed at 25° C. Thermodynamic parameters were obtained by fitting the raw data using Origin software (OriginLab) according to the manufacturers instructions using a 1:1 binding model to obtain values of the enthalpy of binding (ΔH), Gibbs free energy of binding (ΔG), entropy of binding (ΔS), and stoichiometry factor (N). Experiments were performed in triplicate and mean and standard deviations of the mean values of these parameters are reported.

Cdk2 = target: T2, Cdk2 (Homo sapiens, UniProt P24941); assay: Isothermal titration calorimetry of p27 variants into Cdk2; settings: ITC at 25° C., binding to Cdk2
T2 construct: Full length human Cdk2; made in house
Method: as §1

Cdk2/cyclin A [2] = target: T1, Cdk2/cyclin A; assay: Cdk2/cyclin A kinase activity assay (32P incorporation into Histone H1); type: biochemical; settings: Histone H1 as substrate; read-out: Half maximal Cdk2/cyclin A inhibitory concentration (IC50)
Method: Cdk2/Cyclin A ([…]) was mixed with Histone H1 (50 μM; EMD Millipore) and varied amounts of p27 constructs and incubated for 3 hours at 4° C. […] IC50 values were determined by curve fitting using GraphPad Prizm 7 software. Experiments were performed in triplicate and mean IC50 and standard deviations of the mean values are reported.

Sequence of p27-KID (P46527 22-105): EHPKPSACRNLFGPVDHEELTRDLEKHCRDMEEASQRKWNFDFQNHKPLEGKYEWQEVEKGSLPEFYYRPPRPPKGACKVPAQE

Molecule	Kd (p27-KID) [µM]	Kd (Cdk2/cyclin A [1]) [µM]	ΔG (Cdk2/cyclin A [1]) [kcal/mol]	ΔH (Cdk2/cyclin A [1]) [kcal/mol]	−TΔS (Cdk2/cyclin A [1]) [kcal/mol]	Kd (Cdk2) [µM]	ΔG (Cdk2) [kcal/mol]	ΔH (Cdk2) [kcal/mol]	−TΔS (Cdk2) [kcal/mol]	IC50 (Cdk2/cyclin A [2]) [µM]
O=c1oc2cc(OCCO)ccc2c2c1CCCC2 [SJ710]	4800 ± 1300									
p27-D2: D2 sub-domain of p27, residues 58-105 of human p27 (RKWNFDFQNHKPLEGKYEWQEVEKGSLPEFYYRPPRPPKGACKVPAQE; UniProt P46527 58-105, looked up, fragment)		0.134 ± 0.0235	-9.4 ± 0.1	-24.7 ± 1.8	15.3 ± 1.9	0.231 ± 0.0674	-9.1 ± 0.2	-24.5 ± 0.7	15.4 ± 0.9	0.067 ± 0.022
